Reference: article PMC6048692 (Chemical Science, 2018)

Assays:
SEC = target: the molecule itself; assay: SEC
[1] = target: the molecule itself; assay: MoTag2 comet formation, MT plus end tracking

Protein	stoichiometry N (SEC)	stoichiometry N [1]
DsRed fused to MoTag2 (natural protein) MRSSKNVIKEFMRFKVRMEGTVNGHEFEIEGEGEGRPYEGHNTVKLKVTKGGPLPFAWDILSPQFQYGSKVYVKHPADIPDYKKLSFPEGFKWERVMNFEDGGVVTVTQDSSLQDGCFIYKVKFIGVNFPSDGPVMQKKTMGWEASTERLYPRDGVLKGEIHKALKLKDGGHYLVEFKSIYMAKKPVQLPGYYYVDSKLDITSHNEDYTIVEQYERTEGRHHLFL	4	–
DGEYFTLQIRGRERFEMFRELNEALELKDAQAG (domain or fragment) [p53 tetramerization domain (TD), p53 324-356, fused with MoTag2]	–	4
